The results in this text go back to the nanobody polyreactivity screen of Harvey et al. (2022).

The data set can be described thus: yeast display, Sf9 membrane polyspecificity reagent, FACS + sequencing; frameworks hold sequencing errors. Summed up: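 Sorting gates, low and high (top ~1%), were placed on anti-HA fluorescence to track expression and on streptavidin fluorescence to track reagent binding. A clone's polyreactivity label is taken from the gate it came out of. The reagent was 10% biotinylated, detergent-solubilized Sf9 membrane, applied for 1 hour at 4 °C to galactose-induced yeast display cells.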
With “QYQLEDSGGGVVQAGCSLRLSCAASGRTFAYYAMGWYRQAPGKERELVAAISSSGGRTYYADSVKGRFTISRDNAKKTVYLQMNSLIPEDTAVYYCAATSTSGVLYDYWGQGTQVTVSS”, the “polyreactivity (PSR sort gate)” value is listed as “high polyreactivity”.

“QVQLVESGGGLVQAGGSLRLSCAASDAMGWYRQAPGKERELVASISNGVSTNYADSVKGRFTISRDNAKNTVYLQMNSLKPEDTAVYYCAADAKTVGRDDLYWYEVEFDYWGQGTQVTVSS”: the “polyreactivity (PSR sort gate)” value is listed as “low polyreactivity”.

On to “QVQLVESGGGLVQAGGSLRLSCAASGRIFLRNDMVWYRQAPGKERELVAGISSDGSTYYADSVKGRFTISRDNAKNTVYLQMNSVKREDTAVYDCAAERWGKPTVFQFWRPYDYWGLGTQVTVSS”, for which the “polyreactivity (PSR sort gate)” value is “low polyreactivity”.

Regarding “QVQLVESGGGLVQAGGSLRLSCAASGSTFYDYAMGWYRQAPGKERELVAAINWSSDTTYYADSVKGRFTISRDNAKNTVYLQMNSLKPEDTAVYYCATDSAYRGYDYWGQGTQVTVSS”, the “polyreactivity (PSR sort gate)” value is listed as “low polyreactivity”.

In the case of “QVQLVESGGGLVQAGGSLRLSCAASVGIFIYNAMGWYRQAPGKEREFVAAINISGGNTYYADSVKGRFTISRDNAKNTVFLQMNSLKPEDTGVYYCAARYASCWWIRYYYWGQGTQVTVSS”, the “polyreactivity (PSR sort gate)” value was “high polyreactivity”.

As for “QVQLVESGGGLVQAGGSLRLSCAASGRTFEYNDMGWYRQSPGKERELVAAISWRGTSTYYADSVKGRFTISRDNAKNTVYLQMNSLKPEDTAVYYCAADYSYSFYYAYYWGQGTQVTVSS”, the “polyreactivity (PSR sort gate)” value is recorded as “high polyreactivity”.

Consider “QVQLVESGGGLVQAGGSLRLSGAASGSTFYSYAMGWYRQAPGKERELVAAISGSGASTYYADSVKGSFTISRDNAKNTVYLLMNSLKPEETAVYYCAADKPGIFSRFDYWGQGTQVTVSS”, for which the “polyreactivity (PSR sort gate)” value was “low polyreactivity”.

Consider “QVQLVESGGGLVQAGGSLRLSCAASGSTFNYYAMGWYRQAPGKERELVAVITNGGTTYYADSVKGRFTISRDNAKNTVYLQMNSLKPEDTAVYYCAAALLGRSKRFYYWGQGTQVTVSS”, for which the “polyreactivity (PSR sort gate)” value is listed as “high polyreactivity”.

Take “QVQLVESGGGLVQAGGSLRLRCAASGFIFRWYAMGWYRQAPGKERELVARISNGGSTYYADSVKGRFTISRDNAKKTVYLQMNSLKPEDTAVYYCAARLPYGYYSAGYYYWGQGTQVTVSS”: the “polyreactivity (PSR sort gate)” value was “high polyreactivity”.

For the sequence “QVQLVESGGGLVQAGGSLRLSCAASGFIFTDYAMGWYRQAPGKERELVAAISSGGRTYYADSVKGRFTISRDNAKNTVYLQMNSLKPEDTAVYYCARGGRAEGWGQGTQVTVSS”, the “polyreactivity (PSR sort gate)” value is recorded as “high polyreactivity”.

Consider “QVQLVESGGGLVQAGGSLRLSCAASGRTFYGNVMGWYRQAPGKEREWVAVISWSSGSTSYADSVKGRFTISRDNAKNTVYLQMNSLKPEDTAVYYCAGTTRPPRYRQYDSDYYYWGQGTQVTVSS”, for which the “polyreactivity (PSR sort gate)” value is given as “low polyreactivity”.

Regarding “QVQLVESGGGLVQAGGSLRLSCAASGRIFKVYAMGWYRQAPGKERELVAAINWSTGSTYYADSVKGRFTISRDNAKNTVYLQMNSLKPEDTAVYYCAAKNLYSYDWGQGTQVTVSS”, the “polyreactivity (PSR sort gate)” value is recorded as “high polyreactivity”.

As for “QVQLVESGGGLVQAGGSLRLSCAASGRTLFFYAMGLYRQAPGKERELVAAISSSGTRTYYADSVKGRFTISRDNAKNTVYLQMNSLIPEDTAVYYCNKVKYYRTGGMEYWGQGTQVTVSS”, the “polyreactivity (PSR sort gate)” value is recorded as “high polyreactivity”.

For the sequence “QVQLQESGGGLVQAGGSLRLSCAASGSIFYVYGMGWYRQAPGKERELVAVINAGTNTNYADSVRGRFTISRDNAINSVLLQMNSLKPEDTAVYYCADDGNGYQAHEYWGQGNQVTVSS”, the “polyreactivity (PSR sort gate)” value is “high polyreactivity”.

In the case of “QVQLVESGGGLVQAGGSLRLSCAASGFIFWRYAMGWYRQAPGKERELVAAISSGGNTKYADSVKGRFTISRDNAKNTVYLQMNSLKPEDTAVYYCAVLGKYLWSATNRFPGSYDSWGQGTQVTVSS”, the “polyreactivity (PSR sort gate)” value is recorded as “high polyreactivity”.

For the sequence “QVQLEESGGGLVQAGGSLRLSCAASGRTFGLNAMGWYRQAPGKERELVAAITYSGGSTYYADSVKGRCTISRDNAKNTVYLHMNSLKPEDTAVYYCAKEVQTYWYHYYYWGHGTQVTVSS”, the “polyreactivity (PSR sort gate)” value is “high polyreactivity”.

Regarding “QVQLVESGGGLVQAGGSLRLSCAASGRTFDLYAMGWYRQAPGKERELVAAITKGGGSTYYADSVKGRFTISRDNAKNTVYLQMNSLKPEDTAVYYCAARFYYPWLYLFDSWGQGTQVTVSS”, the “polyreactivity (PSR sort gate)” value is listed as “high polyreactivity”.

As to “QVQLVESGGGLVQAGGSLRLSCAASGGIFAYNAMGWYRQAPGKERELVATISSGVSTNYADSVKGRFTISRDNAKNTVYLPMNSLKPEDTAVYDCAAAIFITGYGSYGYWGQGTQVTVSS”, the “polyreactivity (PSR sort gate)” value is recorded as “low polyreactivity”.

With “QVQLEDSGGGLVQAGGSLRLSCAASGATFDGYTMAWYRQAPGKERELVAAISWRGTSTYYADSVKGRFTISRDNAKNTVYLQMNSLKPDDTAVYYCAADAYSGYDYWGQGTQVNVSS”, the “polyreactivity (PSR sort gate)” value is “low polyreactivity”.

On to “QVQLVESGGGLVQAGGSLRFSCAASGSIFSWYAMGGYRQAPGKERELVAAITWTGGSTYYADSVKGRFTISRDNAKNTVYLQMNSLKPEETAVYYCAARRVVYRKYGDRARWYNYWGHGTQVTVSS”, for which the “polyreactivity (PSR sort gate)” value is “high polyreactivity”.

In the case of “QVQLVESGGGLVQAGGSLRLSCAASGRIYGNAMGWYRQAPGKERELVAAISWSGGSTYYADSVKGRFTISRDNAKNTVYLQMNSLKPEDTAVYYCAATYPQGKYTYGRSYDYWGQGTQVTVSS”, the “polyreactivity (PSR sort gate)” value is “high polyreactivity”.

Regarding “QVQLVESGGGLVQAGGSLRLSCAASGFIFHQNAMGWYRQAPGKERELVAAITRSGTSTYYADSVKGRFTISRDYAKISVYLQMNSLKPVDTAVFYCANDPVRVGRFGYEYWGKGTQVTVSS”, the “polyreactivity (PSR sort gate)” value is “low polyreactivity”.

With “QVQLVESGGGLVQAGGSLRLSCAASGITFKYYTMGWYRQAPGKERELVAAITADTGTTYYADSVKGRFTISRDNAKNTVYLQMNSLKPEDTAVYYCATRDVFYDDDYWGQGTQVTVSS”, the “polyreactivity (PSR sort gate)” value was “high polyreactivity”.

In the case of “QVQLVESGGGLVQAGASLRLSCAASGIIVTQYAMGWYRQAPGKESEIVATFSSGGARTYYADSVKGRFTISRDNAKNTVYLQMKSQKPEDTAVYYCDARRYRGYSPPYDYCGQGTQVTVSS”, the “polyreactivity (PSR sort gate)” value is “high polyreactivity”.

On to “QVQLVESGGGLVQAGGSLRLSCAASGSIFSIYAMGWYRQAPGKERELVAAIDSGTSTTYADSVKGRFRISRDNAKKTVYLQMKSLKPEDTAVYYCAAALYSDVAAVATFGYYWGQGTQVTVSS”, for which the “polyreactivity (PSR sort gate)” value is reported as “low polyreactivity”.

Turning to “QVQLVESGGGLVQAGGSLRLSCAASGLTFRYYTMGWYRQAPGKERELVAAISRTVGSTYYADSVKGRFTISRDNAKNTVYLQMNSLKPEDTAVYYCAAKYEQYSPAVIYYYWGQGTQVTVSS”, the “polyreactivity (PSR sort gate)” value is on record as “high polyreactivity”.

Turning to “QVQLVESGRGLVQAGGSLRLSCAASGIIFELYAMGWYRQAPGKEREFVAAINFSDGSTDYADSVKGRFTISRDNAKKTVYLKMNSLKPEDTAVYYCNADSIAYGSIIHGYWGQGTQVTVSS”, the “polyreactivity (PSR sort gate)” value was “low polyreactivity”.

“QVQLVESGGGLVQAGGSLRLSCAASGSTFYIYAMGWYRPAPGKERELVARISGSGGSTYYADSVKGRFTISRDNAKNTVYLQMNSLKPEDTAVYYCAADDIYKYYQYYAFPYYRYDYWGQGTQVTVSS”: the “polyreactivity (PSR sort gate)” value is given as “low polyreactivity”.

As for “QVQVVESGGGLVQAGGSLRLSCAASGRIFRANAMGGYRKAPGKERELVADISRSAGSTYYADSVKGRFTISRDNAKNTVYLQLNSLKPADTAVYYCAKRGYYSFDYWGQGTQVTVSS”, the “polyreactivity (PSR sort gate)” value is “high polyreactivity”.

On to “QVQLVDSGGGLVQAGGSLSLSCAASGITFYRYMGLYRQGPWKSRELVASITGRGGSTYYADSVKGRFTISRDNAKNTGYLEMNSLKPEDTAVYYCAAVFPTKSSTWYDYWGQGTQVTVSS”, for which the “polyreactivity (PSR sort gate)” value is on record as “high polyreactivity”.

With “QVQLVESGGGLVQAGGSLRLSCAASGRTFRYNAMGWYRQAPGKERELVARISRGGSTYADSVKGRFTISRDNAKNTVYLQMNSLKPEDTAVYYCAAYPTKHNQSEYYYWGQGTQVTVSS”, the “polyreactivity (PSR sort gate)” value is “low polyreactivity”.

Turning to “QVQLVESGGGLVQAGGSLRLSCAASGSTFTGYAMGWYRQAPGKEREMVAAISSDGITKYADSVKGRFTISRDNAKYTVYLQMNSLKQEDTAVYYCYAPRGSRRSYRRTEYYYWGQGTQVTVSS”, the “polyreactivity (PSR sort gate)” value is “high polyreactivity”.

For the sequence “QVQRVESGGGLVQAGGSLRLSCAASGIIFPHNAMGWYRQAPGKERELVATISRSGARTYYADSVKGRFTISRDNAKNTVYLQMNSLKPEDTAVYYCAVQRLVYVYGAYDYWGQGTQVTVSS”, the “polyreactivity (PSR sort gate)” value was “high polyreactivity”.

With “QVQLVESGGGLVQAGGSLRLSSAASGRTFRRYAMGWYRQAPGKERELVATITNAGSTYYADSVKGRFTISRDNAKNTVYLPMNSLKPEDTAVYYCAARVPYKSDYWGQGTQVTVSS”, the “polyreactivity (PSR sort gate)” value is on record as “low polyreactivity”.

In the case of “QVQLVESGGGLVQAGGSLRLSCTASGSTFVAYAMGWYRQAPGKERELVAAITSSGGRTYYADSVKGRFTISRDNAKNTVYLQMNSLKPEDTAVYYCNVYPSRRRAVGESERYYWGQGTQVTVSS”, the “polyreactivity (PSR sort gate)” value is recorded as “high polyreactivity”.

In the case of “QVQLVESGGGLVQAGGSLRLSCAASGSTFQYYDMGWYRQAPGKERELVASITGSGDSTYYADSVKGRFTISRDNAKNTVYLQMNSLKPEDTAVYYWGQGTQVTVSS”, the “polyreactivity (PSR sort gate)” value is on record as “low polyreactivity”.

As for “QVQLVESGGGLVQAGGSLRLSCAASGSIILYYAIGWYRQAPGIERELVAGIRRGGRTNYADSVKGRFTISRDNAKNTVYLQMNSLKPEDTAVYYCAKGGYWGQGSQVTVSS”, the “polyreactivity (PSR sort gate)” value is given as “high polyreactivity”.

For “QVQLVESGGGLVQAGGSLRLSCAASGNTFYVNVMGWYRQAPGKERELVARITTSGGSTSYADSVKGRFTISRDNAKNTVYLQMNSLKPEDTAVYYCAADFPEYYLPYDYWGQGTQVTVSS”, the “polyreactivity (PSR sort gate)” value is listed as “low polyreactivity”.

On to “QVQLVESGGGLVQAGGSLRLSCAASGITFAYYVKGWYRQAPGKERQLVAAITRSGDITSYADSVKGRFTISRDNAKNTVYLQMNSLKPEDTAVYYCNARRGYQSRRYNYWGQGTQVTVSS”, for which the “polyreactivity (PSR sort gate)” value is recorded as “high polyreactivity”.

“QVQLVESAGGLVQAGGSLRLSCASSGSTFQKYAMGWYRQAPGKESELVARISSGGSTTNADYVKGRFTISRDNAKYTVYIQMTSLKPEDTAVYYCAARLVVAQPHQWVVYLNTYYYWGQGTQVTVSS”: the “polyreactivity (PSR sort gate)” value is “high polyreactivity”.

“QVQLVESGGGLVQAGGSLRLSCAASGSTFSSYVMGWYRQAPGKERELVAAISSIGGSTYYADSVKGRFTISRDNAKNTVYLQMNSLKPEDTAVYYCAAEPPGSTYEGGYWGQGTQVTVSS”: the “polyreactivity (PSR sort gate)” value was “low polyreactivity”.
